Data published in patent publication US20230346885A1 (published 2023).
Substitutions are numbered along the chain they refer to.

Experiments:
Experiment in all cases: binding, other
[1] = target: T1, KLK4 peptide on HLA (human)
T1 peptide: FQNSYTIGL

[2] = target: T2, MAGEC1 peptide on HLA (human)
T2 peptide: FLAMLKNTV

[3] = target: T3, KLK3 peptide on HLA (human)
T3 peptide: KVMDLPTQEPAL

[4] = target: T4, MAGEC1 peptide on HLA (human)
T4 peptide: ILQSSPESA

[5] = target: T5, HTR3A peptide on HLA (human)
T5 peptide: AILNVDEKNQV

[6] = target: T6, KLK4 peptide on HLA (human)
T6 peptide: KLYDPLYHPSM

[7] = target: T7, MAGEB2 peptide on HLA (human)
T7 peptide: KVLEFLAKV

[8] = target: T8, HTR3A peptide on HLA (human)
T8 peptide: SLAETIFIV

B1: TCR of SEQ ID NOs 411 and 412 (TCR, V domains shown)
Valpha: KQEVTQIPAALSVPEGENLVLNCSFTDSAIYNLQWFRQDPGKGLTSLLLIQSSQREQTSGRLNASLDKSSGRSTLYIAASQPGDSATYLCAVSGGSYIPTFGRGTSLIVHP
Vbeta: NAGVTQTPKFRVLKTGQSMTLLCAQDMNHEYMYWYRQDPGMGLRLIHYSVGEGTTDKGEVPDGYNVSRSTTEDFPLRLLSAAPSQTSVYFCASRKAGYGYTFGSGTRLTVV
- binding result [1]: recognises

B2: TCR of SEQ ID NOs 407 and 408 (TCR, V domains shown)
Valpha: KQEVTQIPAALSVPEGENLVLNCSFTDSAIYNLQWFRQDPGKGLTSLLLIQSSQREQTSGRLNASLDKSSGRSTLYIAASQPGDSATYLCAVRSYNTDKLIFGTGTRLQVFP
Vbeta: NAGVTQTPKFRILKIGQSMTLQCTQDMNHNYMYWYRQDPGMGLKLIYYSVGAGITDKGEVPNGYNVSRSTTEDFPLRLELAAPSQTSVYFCASSYSSWTEAFFGQGTRLTVV
- binding result [1]: recognises

B3: TCR of SEQ ID NOs 435 and 436 (TCR, V domains shown)
Valpha: B2 Valpha with V92A, R93L
Vbeta: NAGVTQTPKFRVLKTGQSMTLLCAQDMNHEYMYWYRQDPGMGLRLIHYSVGEGTTAKGEVPDGYNVSRLKKQNFLLGLESAAPSQTSVYFCASKDIPYTEAFFGQGTRLTVV
- binding result [2]: recognises

B4: TCR of SEQ ID NOs 409 and 410 (TCR, V domains shown)
Valpha: B2 Valpha with R93T, S94A
Vbeta: NAGVTQTPKFRILKIGQSMTLQCTQDMNHNYMYWYRQDPGMGLKLIYYSVGAGITDKGEVPNGYNVSRSTTEDFPLRLLSAAPSQTSVYFCASSYYPGTSTEAFFGQGTRLTVV
- binding result [1]: recognises

B5: TCR of SEQ ID NOs 391 and 392 (TCR, V domains shown)
Valpha: QKEVEQNSGPLSVPEGAIASLNCTYSDRGSQSFFWYRQYSGKSPELIMSIYSNGDKEDGRFTAQLNKASQYVSLLIRDSQPSDSATYLCAVNSPGNARLMFGDGTQLVVKP
Vbeta: NAGVTQTPKFQVLKTGQSMTLQCAQDMNHEYMSWYRQDPGMGLRLIHYSVGAGITDQGEVPNGYNVSRSTTEDFPLRLLSAAPSQTSVYFCASSYWRGGLEQYFGPGTRLTVT
- binding result [3]: recognises

B6: TCR of SEQ ID NOs 429 and 430 (TCR, V domains shown)
Valpha: KQEVTQIPAALSVPEGENLVLNCSFTDSAIYNLQWFRQDPGKGLTSLLLIQSSQREQTSGRLNASLDKSSGRSTLYIAASQPGDSATYLCAVRPFSGGYNKLIFGAGTRLAVHP
Vbeta: B5 Vbeta with A24T, E30N, S33Y, R44K, H47Y, Y95P, W96E, R97Y, G99Y, L100Y
- binding result [4]: recognises

B7: TCR of SEQ ID NOs 433 and 434 (TCR, V domains shown)
Valpha: KQEVTQIPAALSVPEGENLVLNCSFTDSAIYNLQWFRQDPGKGLTSLLLIQSSQREQTSGRLNASLDKSSGRSTLYIAASQPGDSATYLCAVESGNQFYFGTGTSLTVIP
Vbeta: B5 Vbeta with A52V, Y95F, W96G, R97Q, G99S, L100S, E101P, Q102L, Y103H, P106N
- binding result [2]: recognises

B8: TCR of SEQ ID NOs 389 and 390 (TCR, V domains shown)
Valpha: QKEVEQNSGPLSVPEGAIASLNCTYSDRGSQSFFWYRQYSGKSPELIMSIYSNGDKEDGRFTAQLNKASQYVSLLIRDSQPSDSATYLCAVWGKSGGYNKLIFGAGTRLAVHP
Vbeta: NAGVTQTPKFGILKTGQSMTLQCAQDMNHEYMSWYRQDPGMGLRLIHYSVGAGITDKGEVPNGYNVSRSTTEDFPLRLELAAPSQTSVYFCASSYSSPLRQDNSPLHFGNGTRLTVT
- binding result [3]: recognises

B9: TCR of SEQ ID NOs 379 and 380 (TCR, V domains shown)
Valpha: KQEVTQIPAALSVPEGENLVLNCSFTDSAIYNLQWFRQDPGKGLTSLLLIQSSQREQTSGRLNASLDKSSGRSTLYIAASQPGDSATYLCAVSPFDLYGQNFVFGPGTRLSVLP
Vbeta: NAGVTQTPKFQVLKTGQSMTLQCAQDMNHNSMYWYRQDPGMGLRLIYYSASEGTTDKGEVPNGYNVSRLNKREFSLRLESAAPSQTSVYFCASRGTLFDPQHFGDGTRLSIL
- binding result [5]: recognises

B10: TCR of SEQ ID NOs 399 and 400 (TCR, V domains shown)
Valpha: KQEVTQIPAALSVPEGENLVLNCSFTDSAIYNLQWFRQDPGKGLTSLLLIRSSQREQTSGRLNASLDKSSGRSTLYIAASQPGDSATYLCAVMSSQGGSEKLVFGKGTKLTVNP
Vbeta: NAGVTQTPKFRVLKTGQSMTLLCAQDMNHEYMYWYRQDPGMGLRLIHYSVGEGTTAKGEVPDGYNVSRLKKQNFLLGLESAAPSQTSVYFCASKGLVADTIYFGEGSWLTVV
- binding result [6]: recognises

B11: TCR of SEQ ID NOs 419 and 420 (TCR, V domains shown)
Valpha: KQEVTQIPAALSVPEGENLVLNCSFTDSAIYNLQWFRQDPGKGLTSLLLIQSSQREQTSGRLNASLDKSSGRSTLYIAASQPGDSATYLCAVSGGTTDSWGKLQFGAGTQVVVTP
Vbeta: NAGVTQTPKFQVLKTGQSMTLQCAQDMNHEYMSWYRQDPGMGLRLIHYSVGAGITDQGEVPNGYNVSRSTTEDFPLRLLSAAPSQTSVYFCASSFTPYEGYTFGSGTRLTVV
- binding result [7]: recognises

B12: TCR of SEQ ID NOs 423 and 424 (TCR, V domains shown)
Valpha: B11 Valpha with T96A
Vbeta: B11 Vbeta with F95Y, T96S, Y98W, E99T, G100E, Y101A, T102F, S105Q
- binding result [7]: recognises

B13: TCR of SEQ ID NOs 395 and 396 (TCR, V domains shown)
Valpha: KQEVTQIPAALSVPEGENLVLNCSFTDSAIYNLQWFRQDPGKGLTSLLLIQSSQREQTSGRLNASLDKSSGRSTLYIAASQPGDSATYLCAVLDSWGKLQFGAGTQVVVTP
Vbeta: NAGVTQTPKFRVLKTGQSMTLLCAQDMNHEYMYWYRQDPGMGLRLIHYSVGEGTTAKGEVPDGYNVSRLKKQNFLLGLESAAPSQTSVYFCASSGLLSPDTQYFGPGTRLKVL
- binding result [6]: recognises

B14: TCR of SEQ ID NOs 421 and 422 (TCR, V domains shown)
Valpha: B13 Valpha with L93E, D94S, S95D, W96D, G97Y, Q100S, Q106T, V108T, T110R, P111A
Vbeta: NAGVTQTPKFQVLKTGQSMTLQCAQDMNHNSMYWYRQDPGMGLRLIYYSASEGTTDKGEVPNGYNVSRLNKREFSLRLESAAPSQTSVYFCASSEALGGVTDTQYFGPGTRLTVL
- binding result [7]: recognises

B15: TCR of SEQ ID NOs 425 and 426 (TCR, V domains shown)
Valpha: KQEVTQIPAALSVPEGENLVLNCSFTDSAIYNLQWFRQDPGKGLTSLLLIQSSQREQTSGRLNASLDKSSGRSTLYIAASQPGDSATYLCAVRDDYKLSFGAGTTVTVRA
Vbeta: NAGVTQTPKFRVLKTGQSMTLLCAQDMNHEYMYWYRQDPGMGLRLIHYSVGEGTTAKGEVPDGYNVSRLKKQNFLLGLESAAPSQTSVYFCASSYGPGQIYGYTFGSGTRLTVV
- binding result [4]: recognises

B16: TCR of SEQ ID NOs 427 and 428 (TCR, V domains shown)
Valpha: B15 Valpha with D94N
Vbeta: B15 Vbeta with S107P, V114L
- binding result [4]: recognises

B17: TCR of SEQ ID NOs 431 and 432 (TCR, V domains shown)
Valpha: B7 Valpha with E93G, S94G, G95Y, Q97K, F98L, Y99I, T102A, S105R, T107A, I109H
Vbeta: NAGVTQTPKFQVLKTGQSMTLQCAQDMNHNSMYWYRQDPGMGLRLIYYSASEGTTDKGEVPNGYNVSRSTTEDFPLRLLSAAPSQTSVYFCASSLDPLAEAFFGQGTRLTVV
- binding result [2]: recognises

B18: TCR of SEQ ID NOs 385 and 386 (TCR, V domains shown)
Valpha: KQEVTQIPAALSVPEGENLVLNCSFTDSAIYNLQWFRQDPGKGLTSLLLIQSSQREQTSGRLNASLDKSSGRSTLYIAASQPGDSATYLCAVLTDSWGKLQFGAGTQVVVTP
Vbeta: NAGVTQTPKFRVLKTGQSMTLLCAQDMNHEYMYWYRQDPGMGLRLIHYSVGEGTTAKGEVPDGYNVSRLKKQNFLLGLESAAPSQTSVYFCASSYWGGNTEAFFGQGTRLTVV
- binding result [8]: recognises

B19: TCR of SEQ ID NOs 387 and 388 (TCR, V domains shown)
Valpha: B18 Valpha with L93S, T94G
Vbeta: NAGVTQTPKFQVLKTGQSMTLQCAQDMNHNSMYWYRQDPGMGLRLIYYSASEGTTDKGEVPNGYNVSRLNKREFSLRLESAAPSQTSVYFCASSYWGPNTEAFFGQGTRLTVV
- binding result [8]: recognises

B20: TCR of SEQ ID NOs 393 and 394 (TCR, V domains shown)
Valpha: AQSVTQLDSHVSVSEGTPVLLRCNYSSSVPPYLFWYVQYPNQGLQLLLKYTTGATLVKGINGFEAEFKKSETSFHLTKPSAHMSDAAEYFCAVSEDGNKLVFGAGTILRVKS
Vbeta: AAGVIQSPRHLIKEKRETATLKCYPIPRHDTVYWYQQGPGQDPQFLISFYEKMQSDKGSIPDRFSAQQFSDYHSELNMSSLELGDSALYFCASRLTGVSGEGDYGYTFGSGTRLTVV
- binding result [3]: recognises

B21: TCR of SEQ ID NOs 381 and 382 (TCR, V domains shown)
Valpha: KQEVTQIPAALSVPEGENLVLNCSFTDSAIYNLQWFRQDPGKGLTSLLLIQSSQREQTSGRLNASLDKSSGRSTLYIAASQPGDSATYLCAVRPADSWGKLQFGAGTQVVVTP
Vbeta: NAGVTQTPKFRILKIGQSMTLQCTQDMNHNYMYWYRQDPGMGLKLIYYSVGAGITDKGEVPNGYNVSRSTTEDFPLRLELAAPSQTSVYFCASSYSLGELFFGEGSRLTVL
- binding result [5]: recognises

B22: TCR of SEQ ID NOs 397 and 398 (TCR, V domains shown)
Valpha: B7 Valpha with V92A, E93G, S94G, G95Y, N96Q, Q97K, F98V, Y99T, S105K, T107Q
Vbeta: B21 Vbeta with E79L, L80S, S94R, Y95R, S96P, L97T
- binding result [6]: recognises

B23: TCR of SEQ ID NOs 383 and 384 (TCR, V domains shown)
Valpha: B21 Valpha with R93L, P94T, A95T
Vbeta: NAGVTQTPKFRILKIGQSMTLQCTQDMNHNSMYWYRQDPGMGLRLIYYSASEGTTDKGEVPNGYNVSRLNKREFSLRLESAAPSQTSVYFCASSELIGTVDYSNQPQHFGDGTRLSIL
- binding result [8]: recognises
